Assay results as given in US20180258181A1 (Bayer, published 2018).

Tests used:
[1] = molecular target: T1, mesothelin on CHO-A9 cells (CHO-K1 stably transfected with the GPI-anchored C-terminal part of mesothelin) (Homo sapiens (Human), UniProt Q13421 287-598, GPI anchor); assay: FACS with Scatchard analysis, IgG1 on CHO-A9 cells
T1 construct: In the immunoblots the protein stood in a denatured cell extract; also called mesothelin-expressing CHO-A9 cells

[2] = molecular target: T1, mesothelin on CHO-A9 cells (CHO-K1 …); assay: live cell ELISA, IgG1 on CHO-A9 cells
[3] = molecular target: T2, human mesothelin (recombinant, soluble, purified; 40 kDa C-terminal polypeptide of the mesothelin precursor) (human, UniProt Q13421 296-598, limits assumed); assay: Biacore pairwise binding, mesothelin (50 nM) captured by immobilized MF-T, second antibody 200 nM
T2 construct: also called soluble mesothelin
T2 sequence (Q13421 other isoform, or with tags, fused parts or gaps limits assumed): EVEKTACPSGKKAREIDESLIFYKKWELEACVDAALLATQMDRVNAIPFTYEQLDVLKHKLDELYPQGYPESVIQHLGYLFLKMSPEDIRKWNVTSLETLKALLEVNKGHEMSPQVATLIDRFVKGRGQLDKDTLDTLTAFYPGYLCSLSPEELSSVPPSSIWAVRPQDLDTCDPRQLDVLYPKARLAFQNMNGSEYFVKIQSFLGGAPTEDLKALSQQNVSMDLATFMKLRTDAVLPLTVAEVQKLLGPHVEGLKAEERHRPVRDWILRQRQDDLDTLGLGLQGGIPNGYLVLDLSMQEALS
Description: Competitive binding of pairs of antibodies was determined by immobilizing one antibody to the sensor chip, binding soluble mesothelin to this antibody and immediately binding a second antibody to mesothelin. Pairs of antibodies which recognize the same or overlapping epitopes on mesothelin cannot bind simultaneously. All combinations of antibody pairs were tested. Representative data for MF-T are shown (A). Panel B depicts the relative positions of epitopes of seven anti-mesothelin antibodies, in which competition is depicted by overlapping circles.
Epitope grouping experiments were performed using Biacore by monitoring simultaneous binding of pairs of anti-mesothelin antibodies to immobilized mesothelin. Briefly, the first antibody was covalently immobilized to the sensor chip through primary amine coupling using n-hydroxysuccinamide ([…]) and N-ethyl-N′-dimethylaminopropyl carbodiimide (EDC). Unoccupied binding sites on the surface were then blocked with ethanolamide. Soluble mesothelin was captured on the surface via the immobilized antibody, therefore, the epitope of the capture antibody is blocked for all bound mesothelin molecules. A second antibody was immediately passed over the surface to bind to the immobilized mesothelin. Two antibodies recognizing the same or overlapping epitopes cannot bind to the mesothelin, whereas antibodies with distinct epitopes are able to bind. […]

T1 sequence (Q13421 other isoform, or with tags, fused parts or gaps limits assumed): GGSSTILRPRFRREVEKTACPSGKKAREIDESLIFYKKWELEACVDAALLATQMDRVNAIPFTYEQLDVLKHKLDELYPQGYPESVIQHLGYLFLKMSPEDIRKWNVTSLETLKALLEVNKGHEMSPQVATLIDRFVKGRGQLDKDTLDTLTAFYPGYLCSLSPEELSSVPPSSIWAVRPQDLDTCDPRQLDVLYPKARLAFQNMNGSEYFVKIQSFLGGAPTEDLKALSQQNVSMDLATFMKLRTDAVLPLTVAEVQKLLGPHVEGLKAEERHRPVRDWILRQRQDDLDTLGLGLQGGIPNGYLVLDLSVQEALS

EC50 [1] | EC50 [2] | binding result [3] | Binder
0.07 nM | 0.8 nM | – | MF-L IgG (antibody, V domains shown) VH: QVQLVESGGGLVQPGGSLRLSCAASGFTFSDYAMSWVRQAPGKGLEWVSAIMYDSSSTFYADSVKGRFTISRDNSKNTLYLQMNSLRAEDTAVYYCARINYIYKGVHFDYWGQGTLVTVSS VL: DIVLTQSPATLSLSPGERATLSCRASQIVSGYLAWYQQKPGQAPRLLIYGASSRATGVPARFSGSGSGTDFTLTISSLEPEDFATYYCQQYYNFSFTFGQGTKVEIKR
0.27 nM | 1.5 nM | – | MF-T IgG (antibody, V domains shown) VH: QVELVQSGAEVKKPGESLKISCKGSGYSFTSYWIGWVRQAPGKGLEWMGIIDPGDSRTRYSPSFQGQVTISADKSISTAYLQWSSLKASDTAMYYCARGQLYGGTYMDGWGQGTLVTVSS VL: DIALTQPASVSGSPGQSITISCTGTSSDIGGYNSVSWYQQHPGKAPKLMIYGVNNRPSGVSNRFSGSKSGNTASLTISGLQAEDEADYYCSSYDIESATPVFGGGTKLTVLG
0.15 nM | 0.4 nM | – | MF-226 IgG (antibody, V domains shown) VH: QVELVQSGAEVKKPGASVKVSCKASGYTFTGNYINWVRQAPGQGLEWMGIINPHGGDTKYAQKFQGRVTMTRDTSISTAYMELSSLRSEDTAVYYCARWHHGTWIFDYWGQGTLVTVSS VL: DIVLTQPPSVSGAPGQRVTISCSGSSSNIGSNYVSWYQQLPGTAPKLLIYNDNQRPSGVPDRFSGSKSGTSASLAITGLQSEDEADYYCSTYDRRTFSVFGGGTKLTVLG
– | – | binds | MF-428 (antibody, V domains shown) VH: QVQLVESGGGLVQPGGSLRLSCAASGFTFSTYAMSWVRQAPGKGLEWVSFISGYGSSTYYADSVKGRFTISRDNSKNTLYLQMNSLRAEDTAVYYCARKMYWWSDGFDYWGQGTLVTVSS VL: DIELTQPPSVSVAPGQTARISCSGDNLRSKYAHWYQQKPGQAPVLVIYSKDNRPSGIPERFSGSNSGNTATLTISGTQAEDEADYYCSSWAHDHKVFGGGTKLTVLG
